Laboratory results reported in US20140235820A1, “METHODS AND COMPOSITIONS FOR MODULATING THE Wnt PATHWAY” (Genentech, Inc., priority 2010, published 2014).

T1: LRP6 E1E2 (Homo sapiens, UniProt O75581)
T1 construct: construct E1E2-amino acids A20-E631 of LPR6; made in house; host or cells: Tni insect cells (baculovirus, secreted)
T1 sequence (O75581 20-631): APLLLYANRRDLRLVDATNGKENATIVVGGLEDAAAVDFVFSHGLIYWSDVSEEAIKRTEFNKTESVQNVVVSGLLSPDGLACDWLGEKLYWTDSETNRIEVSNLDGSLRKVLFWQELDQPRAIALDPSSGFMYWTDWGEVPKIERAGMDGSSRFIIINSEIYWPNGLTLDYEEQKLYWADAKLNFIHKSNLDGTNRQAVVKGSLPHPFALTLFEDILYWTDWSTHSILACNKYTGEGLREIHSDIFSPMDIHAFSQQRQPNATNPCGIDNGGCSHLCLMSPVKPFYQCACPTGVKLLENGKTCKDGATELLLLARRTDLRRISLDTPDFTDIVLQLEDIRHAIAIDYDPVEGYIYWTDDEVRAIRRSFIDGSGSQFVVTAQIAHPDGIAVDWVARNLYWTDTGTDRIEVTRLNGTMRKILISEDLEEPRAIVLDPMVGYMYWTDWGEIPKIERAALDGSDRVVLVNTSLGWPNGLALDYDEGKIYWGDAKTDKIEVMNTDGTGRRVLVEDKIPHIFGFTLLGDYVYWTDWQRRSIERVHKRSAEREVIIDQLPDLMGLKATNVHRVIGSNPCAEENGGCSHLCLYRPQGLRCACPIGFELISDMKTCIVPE

T2: human LRP6 construct E3E4 (amino acids E631-Q1253) (human, UniProt O75581 631-1253, biotinylated for biolayer interferometry)
T2 construct: range 631-1253; also called LRP6 E3E4
T2 sequence (looked up): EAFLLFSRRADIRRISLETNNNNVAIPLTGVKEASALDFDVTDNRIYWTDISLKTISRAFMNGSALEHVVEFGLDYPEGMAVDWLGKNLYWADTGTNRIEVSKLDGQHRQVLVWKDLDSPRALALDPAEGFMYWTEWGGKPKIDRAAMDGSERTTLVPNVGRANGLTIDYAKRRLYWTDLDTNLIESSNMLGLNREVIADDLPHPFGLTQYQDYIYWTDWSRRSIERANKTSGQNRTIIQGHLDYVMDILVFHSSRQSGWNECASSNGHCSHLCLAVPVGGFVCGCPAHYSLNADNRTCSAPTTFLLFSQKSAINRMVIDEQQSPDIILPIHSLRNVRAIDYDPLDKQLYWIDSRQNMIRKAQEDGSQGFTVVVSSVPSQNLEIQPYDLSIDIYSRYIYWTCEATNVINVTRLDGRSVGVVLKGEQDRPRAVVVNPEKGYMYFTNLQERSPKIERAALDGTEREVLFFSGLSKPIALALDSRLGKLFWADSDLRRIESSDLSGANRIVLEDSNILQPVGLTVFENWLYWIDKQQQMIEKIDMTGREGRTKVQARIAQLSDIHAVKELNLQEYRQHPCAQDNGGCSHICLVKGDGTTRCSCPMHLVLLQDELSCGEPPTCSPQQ

T3: human LRP6 construct E4 (T933-Q1253) (human, UniProt O75581 933-1253, biotinylated for biolayer interferometry)
T3 construct: range 933-1253; also called LRP6 E4
T3 sequence (looked up): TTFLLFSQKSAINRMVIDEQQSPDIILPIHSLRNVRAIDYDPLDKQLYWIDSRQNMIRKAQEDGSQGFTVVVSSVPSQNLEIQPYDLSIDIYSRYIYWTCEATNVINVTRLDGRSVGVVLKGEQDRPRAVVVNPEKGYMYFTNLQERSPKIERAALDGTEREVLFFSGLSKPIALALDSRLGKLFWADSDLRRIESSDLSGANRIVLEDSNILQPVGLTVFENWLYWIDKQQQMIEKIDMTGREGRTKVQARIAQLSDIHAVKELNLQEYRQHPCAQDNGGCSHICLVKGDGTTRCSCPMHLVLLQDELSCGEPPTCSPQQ

T4: LRP6 E1E2 Asn185Ser (human, UniProt O75581 20-631)
T4 construct: range 20-631; also called LRP6 E1E2 N185S (analogue of LRP5 BMD mutation Asn198Ser)
T4 sequence (looked up): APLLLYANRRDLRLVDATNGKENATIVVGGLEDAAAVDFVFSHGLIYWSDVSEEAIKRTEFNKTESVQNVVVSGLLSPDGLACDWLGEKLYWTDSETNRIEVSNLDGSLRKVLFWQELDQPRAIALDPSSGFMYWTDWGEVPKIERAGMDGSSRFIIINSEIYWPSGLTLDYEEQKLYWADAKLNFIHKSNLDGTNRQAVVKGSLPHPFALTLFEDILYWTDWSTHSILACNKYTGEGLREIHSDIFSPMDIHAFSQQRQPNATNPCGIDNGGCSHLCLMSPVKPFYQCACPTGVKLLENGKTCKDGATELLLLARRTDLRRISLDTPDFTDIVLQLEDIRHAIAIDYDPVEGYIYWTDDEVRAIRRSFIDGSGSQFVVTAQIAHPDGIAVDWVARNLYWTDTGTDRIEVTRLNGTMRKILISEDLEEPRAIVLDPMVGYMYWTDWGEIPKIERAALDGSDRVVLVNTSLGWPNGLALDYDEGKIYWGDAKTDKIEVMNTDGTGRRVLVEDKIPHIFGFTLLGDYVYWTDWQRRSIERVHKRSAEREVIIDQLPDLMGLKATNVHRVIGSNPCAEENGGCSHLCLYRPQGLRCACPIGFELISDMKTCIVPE

T5: LRP6 E1E2 Arg141Met (human, UniProt O75581 20-631)
T5 construct: range 20-631; also called LRP6 E1E2 R141M
T5 sequence (looked up): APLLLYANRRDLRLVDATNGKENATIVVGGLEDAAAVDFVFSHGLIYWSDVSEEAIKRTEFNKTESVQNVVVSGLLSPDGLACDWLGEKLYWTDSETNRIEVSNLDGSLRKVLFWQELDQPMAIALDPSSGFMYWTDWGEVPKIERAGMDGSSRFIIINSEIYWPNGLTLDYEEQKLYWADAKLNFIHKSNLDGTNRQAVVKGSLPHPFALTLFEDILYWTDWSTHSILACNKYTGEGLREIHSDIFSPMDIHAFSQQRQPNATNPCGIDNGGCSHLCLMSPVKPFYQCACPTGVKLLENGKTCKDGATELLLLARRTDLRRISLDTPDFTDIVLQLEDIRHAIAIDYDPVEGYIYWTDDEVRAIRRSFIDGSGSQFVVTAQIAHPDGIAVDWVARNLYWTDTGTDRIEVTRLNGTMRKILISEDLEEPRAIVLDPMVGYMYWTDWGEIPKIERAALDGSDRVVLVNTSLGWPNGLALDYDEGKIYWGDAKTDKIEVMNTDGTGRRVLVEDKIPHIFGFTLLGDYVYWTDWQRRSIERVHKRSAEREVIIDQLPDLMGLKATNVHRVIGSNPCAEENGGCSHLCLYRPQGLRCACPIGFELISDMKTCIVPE


Legend:
LRP6 E1E2 = molecular target: T1, LRP6 E1E2; assay: Competition phage ELISA, peptide affinity for LRP6 E1E2; format: binding; conditions: relative to Dkk1 peptide
Protocol: Peptide affinities were also determined by competition with phage displaying a binding peptide (competition phage ELISA). Serial dilutions of test peptide were mixed with an appropriate (non-saturating) concentration of phage before exposing the mixture to target and allowing it to reach equilibrium. After washing to remove unbound material, bound phage were detected by incubation with anti-M13 antibody-horseradish peroxidase (HRP) conjugate and exposure to a suitable colorometric HRP substrate.
Seven-residue peptides from Dkk1 and Sost were synthesized by standard Fmoc procedures. FIG. 7B. These peptides include the “NXI” motif described above. Affinities of the peptides for LRP6 E1E2 were determined by competition phage ELISA (41). […] To understand the detailed interactions of the peptides with LRP6, we determined high-resolution co-crystal structures of the peptides bound to the LRP6 E1 β-propeller. Structures were determined by molecular replacement and refined to 1.9 and 1.5 Å resolution for Dkk1 and Sost peptides, respectively (FIG. 8). Remarkably, the peptides show very similar bound-state conformations compared to the antibody loop, in each case placing the key asparagine side chain in position for the “handshake” interaction described above. Peptide isoleucine residues occupy the hydrophobic pocket where the valine side chain of the antibody loop interacts. […]

[1] = molecular target: T2, human LRP6 construct E3E4 (amino acids …); assay: BLI, biotinylated LRP6 on streptavidin tips
Protocol: (§1) Binding kinetics were measured by biolayer interferometry using an Octet Red instrument (ForteBio) as previously described (11). Streptavidin (SA) biosensors were loaded with biotinylated hLRP6 in 50 mMTris, pH 8, 300 mM NaCl, 5% (v/v) glycerol, and 0.05% (w/v) Triton X-100. The loaded biosensors were washed in the same buffer before carrying out association and dissociation measurements for the indicated times. The Kd of each interaction was determined using steady state-analysis through the Octet Red software v6.3. Each reported value represents an average of three or more experiments at different concentrations, with a fitted experimental curve for which the square of the correlation coefficient (R²) is above 0.96.
(§2) Purified receptors contained individual β-propeller-EGF-like units (E1, E2, or E4), two β-propellers (E1E2 or E3E4), or four β-propellers (E1E4))—as follows: […]

[2] = molecular target: T3, human LRP6 construct E4 (T933-Q1253); assay: BLI, biotinylated LRP6 on streptavidin tips
Protocol: as §1, §2

LRP6 E1E2 Asn185Ser = molecular target: T4, LRP6 E1E2 Asn185Ser; assay: BLI steady-state affinity
Protocol: as §1

LRP6 E1E2 Arg141Met = molecular target: T5, LRP6 E1E2 Arg141Met; assay: BLI steady-state affinity
Protocol: as §1

Row | binds more weakly than the Dkk1 peptide (LRP6 E1E2) | binding result [1] | binding result [2] | fold loss in affinity against wild-type LRP6 E1E2 (LRP6 E1E2 Asn185Ser) [fold] | fold loss in affinity against wild-type LRP6 E1E2 (LRP6 E1E2 Arg141Met) [fold] | Molecule
1 | about 10 fold | – | – | – | – | Ac-LPNAIGR-NH2 (N-terminus and C-terminus assumed) [sclerostin peptide]
2 | – | no binding | no binding | 59 | 31 | Sclerostin (wild type) (ligand, UniProt Q9BQB4 24-213, looked up, also called SOST; Sost) QGWQAFKNDATEIIPELGEYPEPPPELENNKTMNRAENGGRPPHHPFETKDVSEYSCRELHFTRYVTDGPCRSAKPVTELVCSGQCGPARLLPNAIGRGKWWRPSGPDFRCIPDRYRAQRVQLLCPGGEAPRARKVRLVASCKCKRLTRFHNQSELKDFGTEAARPQKGRKPRPRARSAKANQAELENAY
